# Measurements published in patent US20230357342A1 (published 2023).
# T1: IL-18 receptor on HEK-Blue IL18R reporter cells (UniProt Q13478 19-541; O95256 20-599, limits assumed)
# T1 sequence (looked up) 1: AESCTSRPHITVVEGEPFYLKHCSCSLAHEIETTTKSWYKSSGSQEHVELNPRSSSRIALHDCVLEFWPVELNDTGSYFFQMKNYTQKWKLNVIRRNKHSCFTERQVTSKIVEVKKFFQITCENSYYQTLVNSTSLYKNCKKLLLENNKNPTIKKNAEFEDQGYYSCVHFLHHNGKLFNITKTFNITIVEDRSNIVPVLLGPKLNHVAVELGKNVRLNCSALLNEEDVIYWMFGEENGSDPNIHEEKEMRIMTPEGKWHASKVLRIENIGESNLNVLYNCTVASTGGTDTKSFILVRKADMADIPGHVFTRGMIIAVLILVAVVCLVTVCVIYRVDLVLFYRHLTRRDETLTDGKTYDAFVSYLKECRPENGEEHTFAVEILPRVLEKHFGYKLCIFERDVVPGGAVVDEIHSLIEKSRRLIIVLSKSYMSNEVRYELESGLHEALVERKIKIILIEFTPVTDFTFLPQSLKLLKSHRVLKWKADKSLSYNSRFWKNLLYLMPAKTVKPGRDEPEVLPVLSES
# T1 sequence (looked up) 2: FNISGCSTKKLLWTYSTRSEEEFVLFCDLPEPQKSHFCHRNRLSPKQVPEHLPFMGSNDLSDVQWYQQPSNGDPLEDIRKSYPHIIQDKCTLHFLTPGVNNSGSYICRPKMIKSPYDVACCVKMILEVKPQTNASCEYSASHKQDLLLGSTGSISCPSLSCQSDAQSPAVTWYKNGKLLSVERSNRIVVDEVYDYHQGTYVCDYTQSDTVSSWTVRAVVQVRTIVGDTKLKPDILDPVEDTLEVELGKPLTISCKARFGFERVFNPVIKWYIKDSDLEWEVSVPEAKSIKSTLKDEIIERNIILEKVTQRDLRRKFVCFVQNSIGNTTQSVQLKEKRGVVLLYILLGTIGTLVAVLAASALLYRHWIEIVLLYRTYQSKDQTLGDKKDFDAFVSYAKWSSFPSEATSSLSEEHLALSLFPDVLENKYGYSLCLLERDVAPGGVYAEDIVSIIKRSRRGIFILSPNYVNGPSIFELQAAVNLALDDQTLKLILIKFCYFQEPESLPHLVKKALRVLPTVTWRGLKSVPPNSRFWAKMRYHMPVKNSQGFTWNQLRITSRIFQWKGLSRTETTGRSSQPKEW
# T2: Fc fused human IL-18Rα (human, UniProt Q13478 19-329)
# T2 construct: captured by anti-human IgG on a CM5 chip; also called IL-18Rα monomer; human IL-18 receptor alpha (CD218a); not shown: Fc portion
# T2 sequence (looked up): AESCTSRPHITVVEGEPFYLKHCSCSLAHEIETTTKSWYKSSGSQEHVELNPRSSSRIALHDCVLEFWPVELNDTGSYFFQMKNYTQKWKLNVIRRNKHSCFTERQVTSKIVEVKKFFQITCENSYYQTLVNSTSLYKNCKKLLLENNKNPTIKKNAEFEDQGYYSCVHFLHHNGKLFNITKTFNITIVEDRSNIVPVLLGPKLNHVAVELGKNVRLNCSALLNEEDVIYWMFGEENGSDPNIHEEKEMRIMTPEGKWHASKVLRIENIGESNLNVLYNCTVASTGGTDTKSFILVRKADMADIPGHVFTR
# T3: IL-18Rα/β heterodimer (Fc fused human IL-18Rα mixed with Fc fused human IL-18Rβ) (human, UniProt Q13478 19-329; O95256 20-356)
# T3 construct: 6 µg/mL of alpha and beta receptors were mixed and pre-incubated 30 min before capture on anti-human IgG; also called alpha/beta heterodimer IL-18 receptor; heterodimeric human IL-18 receptor alpha (CD218a) and IL-18R accessory protein (IL-18RAP/CDw218b); not shown: Fc portion
# T3 sequence (looked up) 1: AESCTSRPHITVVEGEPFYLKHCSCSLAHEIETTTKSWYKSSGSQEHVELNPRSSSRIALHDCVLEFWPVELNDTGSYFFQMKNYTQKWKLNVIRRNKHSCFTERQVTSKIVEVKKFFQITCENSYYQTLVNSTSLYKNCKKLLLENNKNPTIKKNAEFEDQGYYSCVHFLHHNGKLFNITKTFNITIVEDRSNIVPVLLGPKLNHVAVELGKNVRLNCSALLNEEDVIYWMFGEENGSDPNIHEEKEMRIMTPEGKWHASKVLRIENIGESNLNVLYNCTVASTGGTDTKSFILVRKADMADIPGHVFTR
# T3 sequence (looked up) 2: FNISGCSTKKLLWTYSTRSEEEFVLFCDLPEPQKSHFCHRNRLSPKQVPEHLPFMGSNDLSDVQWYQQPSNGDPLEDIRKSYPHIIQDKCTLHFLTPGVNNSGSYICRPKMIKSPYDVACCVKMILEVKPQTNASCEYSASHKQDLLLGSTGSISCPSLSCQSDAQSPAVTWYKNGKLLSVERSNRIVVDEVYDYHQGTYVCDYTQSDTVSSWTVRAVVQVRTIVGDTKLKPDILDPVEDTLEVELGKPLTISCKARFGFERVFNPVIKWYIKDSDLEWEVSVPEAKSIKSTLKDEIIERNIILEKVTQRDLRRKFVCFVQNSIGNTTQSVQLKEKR
# Experiments:
# [1] = target: T1, IL-18 receptor on HEK-Blue IL18R …; test: cell-based or functional assay
# Fc fused human IL-18Rα = target: T2, Fc fused human IL-18Rα; test: SPR, Fc-IL-18Rα captured via anti-human IgG, IL-18 as analyte, 1:1 model
# Method: (§1) The interaction of the wild type and of modified IL-18 polypeptides with human IL-18 receptor subunits are measured with Surface Plasmon Resonance (SPR) technology. Anti-human IgG antibodies are bound by amine coupling onto a CM5 chip to capture 6 μg/mL of Fc fused human IL-18Rα, 6 μg/mL of Fc fused human IL-18Rβ, or 2 μg/mL of Fc fused human IL-18BP isoform a (IL-18BPa) for 30 min before capture. In other settings, 6 μg/mL of alpha and beta IL-18 receptors are mixed and pre-incubated for 30 min before capture of the alpha/beta heterodimer IL-18 receptor.
# (§2) The kinetic binding of the IL-18 analytes are measured with a Biacore 8K instrument in two fold serial dilutions starting at 1 μM down to 0.98 nM. Regeneration of the surface back to amine coupled anti IgG antibody is done after every concentration of analyte. To measure the protein association to the receptors, the samples are injected with a flow rate of 50 μL/min for 60 s, followed by 300 s buffer only to detect the dissociation. The used running buffer is 1×PBS with 0.05% Tween20. The relative response units (RU, Y-axis) are plotted against time (s, X-axis) and analyzed in a kinetic 1:1 binding model for the monomer receptor binding and for the binding to the IL-18BP. A kinetic heterogenous ligand fit model is applied for the alpha/beta heterodimer binding.
# [2] = target: T3, IL-18Rα/β heterodimer (Fc fused human …); test: SPR, Fc-IL-18Rα and Fc-IL-18Rβ pre-mixed and captured, IL-18 as analyte, heterogeneous ligand model
# Method: as §1, §2
"EC50, HEK-Blue IL18R reporter (SEAP) [1]",Kd (Fc fused human IL-18Rα),koff (Fc fused human IL-18Rα),kon (Fc fused human IL-18Rα),Kd [2],koff [2],kon [2],Binder
14 nM,–,–,–,–,–,–,"modified IL-18 polypeptide SEQ ID NO: 244 (N-terminal G, E6K, V11I, C38A, M51G, K53A, T63A, C76A, C127A) (ligand) GYFGKLKSKLSIIRNLNDQVLFIDQGNRPLFEDMTDSDARDNAPRTIFIISGYADSQPRGMAVAISVKCEKISTLSAENKIISFKEMNPPDNIKDTKSDIIFFQRSVPGHDNKMQFESSSYEGYFLAAEKERDLFKLILKKEDELGDRSIMFTVQNED"
0.53 nM,72.4 nM,0.0151 s⁻¹,208000 M⁻¹ s⁻¹,2.92 nM,0.0008 s⁻¹,279000 M⁻¹ s⁻¹,"modified IL-18 polypeptide SEQ ID NO: 57 (E6K, C38S, K53A) (ligand) YFGKLKSKLSVIRNLNDQVLFIDQGNRPLFEDMTDSDSRDNAPRTIFIISMYADSQPRGMAVTISVKCEKISTLSCENKIISFKEMNPPDNIKDTKSDIIFFQRSVPGHDNKMQFESSSYEGYFLACEKERDLFKLILKKEDELGDRSIMFTVQNED"
